39 molecules from patent publication US20180207228A1, “PEPTIDE COMBINATIONS AND USES THEREOF FOR TREATING GRASS ALLERGY” (ALK-Abelló A/S, priority 2015, published 2018) can be followed below.

Where no end group is shown, it is not given here.

B1: peptide 233 (Phl p 5, 104) (peptide)
peptide: EAKYDAYVATLSEALRIIAG
B2: peptide 224 (Phl p 4, 101) (peptide)
peptide: FAVVDLNKMRAVWVDGKART
B3: peptide 142, Lol p 5a (Rye09B1) (peptide)
peptide: KPEVKYAVFEAALTKAIT
modifications: not fully specified
B4: peptide 205 (Phl p 1, 103) (peptide)
peptide: YHFDLSGHAFGAMAKKGDEQ
B5: peptide 225 (Phl p 4, 163) (peptide)
peptide: GFGMLLRKYGIAAENVIDVK
B6: peptide 231 (Phl p 5, 46) (peptide)
peptide: DKYRTFVATFGAASNKAFAE
B7: peptide 137, Lol p 5b (Bio02A) (peptide)
peptide: KYDAYVATLTEALR
B8: peptide 134, Cyn d 1 (Ber01) (peptide)
peptide: SGKAFGAMAKKGQED
B9: peptide 230 (Phl p 5, 31) (peptide)
peptide: GFKAALAAAAGVPPADKYRT
B10: peptide 203 (Phl p 1, 74) (peptide)
peptide: EIKSTKPEASSGEPVVVHIT
B11: peptide 238 (Phl p 5, 185) (peptide)
peptide: STGGAYESYKFIPALEAAVK
B12: peptide 234 (Phl p 5, 111) (peptide)
peptide: VATLSEALRIIAGTLEVHAV
B13: peptide 206 (Phl p 1, 119) (peptide)
peptide: GDEQKLRSAGELELQFRRVK
B14: peptide 209 (Phl p 1, 163) (peptide)
peptide: LVKYVNGDGDVVAVDIKEKG
B15: peptide 228 (Phl p 5, 1) (peptide)
peptide: AGYTPAAPAGAEPAGKATTE
B16: peptide 207 (Phl p 1, 127) (peptide)
peptide: AGELELQFRRVKSKYPEGTK
B17: peptide 229 (Phl p 5, 21) (peptide)
peptide: EQKLIEKINAGFKAALAAAA
B18: peptide 135, Cyn d 1 (Ber02) (peptide)
peptide: FIPMKSSWGA
B19: peptide 136, Cyn d 1 (Ber02C) (peptide)
peptide: KSSWGAIWRIDPKKPLK
B20: peptide 204 (Phl p 1, 93) (peptide)
peptide: TDDNEEPIAPYHFDLSGHAF
B21: peptide 226 (Phl p 4, 195) (peptide)
peptide: SMGDDHFWAVRGGGGESFGI
B22: peptide 140, Lol p 5a (Rye09B) (peptide)
peptide: PEVKYAVFEAALTKAIT
B23: peptide 139, Lol p 5b (Bio04A) (peptide)
peptide: LKKAVTAMSEAEK
B24: peptide 227 (Phl p 4, 386) (peptide)
peptide: TPFPHRKGVLFNIQYVNYWF
B25: peptide 138, Lol p 5b (Bio03A) (peptide)
peptide: KFIPTLVAAVKQAYAAKQ
B26: peptide 232 (Phl p 5, 84) (peptide)
peptide: TSKLDAAYKLAYKTAEGATP
B27: peptide 143, Lol p 5a (Rye09B2) (peptide)
peptide: KKPEVKYAVFEAALTKAIT
modifications: not fully specified
B28: peptide 237 (Phl p 5, 166) (peptide)
peptide: PANDKFTVFEAAFNNAIKAS

Test system in one data set: not listed separately
The experiment in a line: Peptide solubility by visual inspection. Format: physicochemical.
Conditions: not given
The method, then: Water (pH 3-5) • 2. 250 mM D-Mannitol and 25 mM sodium acetate, pH 4.5 • 3. 250 mM D-Mannitol and 25 mM sodium phosphate, pH 7.0 • 4. […] Water (pH 3-5) • 2. 250 mM D-Mannitol and 25 mM sodium acetate, pH 4.5 • 3. 250 mM D-Mannitol and 25 mM sodium phosphate, pH 7.0 • 4. […] A subset of the peptides was selected as candidate peptides for a final peptide mixture. […] During the solubility studies the peptide-containing solutions were inspected visually before and after filtration for turbidity, and presence of particles/aggregates. In addition, presence of turbidity/particles/aggregates was also detected by optical density (OD) or absorbance of filtered material, but might also be detected by size-exclusion chromatography. Furthermore, Sub-visual particles may also be detected by dynamic light scattering (DLS) analysis on filtered and non-filtered peptide containing solutions. Samples were furthermore subjected to centrifugation to allow for the possible visual inspection of pelleted material.
On to SMGDDHFWAVRGGGGESFGI-OH [peptide 226], for which the “solubility, 1st round of solubility screening” value (from here on “solubility, 1st round”) is recorded as “soluble”.

VRYTTEGGTKTEAEDVIPEG-OH [peptide 212]: the “solubility, 1st round” value is listed as “soluble”.

As to WLDAKSTWYGKPTGAGPKDN-OH [peptide 201], the “solubility, 1st round” value is “soluble”.

Still in this data set, the particulars now being: first solubility screening; TFA salts, 1-7 mg/mL solutions in DMSO.
Turning to AEVELRQHGSEEWEPLTKKG-OH [compound 063], the Visual inspection result is on record as “+”.

With GGASGYKDVDKPPFSGMTGS-OH [compound 006], the Visual inspection result is listed as “+”.

As to TPDKLTGPFTVRYTTEGGTK-OH [compound 024], the Visual inspection entry was “++”.

With VVAVDIKEKGKDKWIELKES-OH [compound 021], the Visual inspection result is on record as “++”.

Test system in another data set: not listed separately
The experiment in a line: Extended solubility and short term stability study (visual, U-HPLC recovery, DLS, 90LS, UV-VIS, sum of scores).
Conditions: not given
On the procedure:
For that purpose, the peptides were provided as acetate salts (produced by Innovagen® at a >10 mg scale of manufacturing). To take into account batch-to-batch variations, some peptides were tested from other batches of the manufacturer Innovagen®, as well as from another manufacturer (Almac) and from in-house production. Solubility experiments were performed on peptide in solution in concentrations ranging from 0.5 mg/mL to 3 mg/mL (dry matter)—with the following solvents: • Water • Acetate buffer, pH 4.5 (25 mM sodium acetate containing 250 mM D-Mannitol) • Phosphate buffer, pH 7.0 (25 mM sodium phosphate containing 250 mM D-Mannitol) • Glycine buffer, pH 8.5 (25 mM glycine containing 250 mM D-Mannitol)
The solubility of the peptides was initially investigated by visual inspection and U-HPLC recovery. Visual inspection included assessment of turbidity and presence of particles/aggregates of each peptide solution before and after centrifugation as well as visual inspection of pelleted material. The visual inspection were reported as “clear solution”, “very small precipitation only visible with a magnifier”, “precipitation visible/turbid solution” or “more precipitation/turbid solution”. Filtration of peptide solutions were conducted using syringe based filters containing a polyethersulfone (PES) membrane chemistry and a pore size of 0.2 μm. The amount of the peptide in the supernatant of a filtered sample was determined using U-HPLC with reverse phase chromatography and recovery were determined as described in Example 5.
Peptide solutions were investigated at a time point of 1 hour after production, but were also repeated at later time point (e.g. 24. 48 or 96 hours) to investigate the stability of the peptides.
Peptide solutions were investigated to determine the presence of turbidity/particles/aggregates by use of optical density (OD) and change in UV-VIS absorbance at a wavelength of 320 nm, of the filtrate. […] In addition or as an alternative, the amount of the peptide in the supernatant of a filtered sample was determined using U-HPLC as described above, with the exception that the recovery was determined by dividing the peak area of the filtered sample in relation to the peak area in the original solution prior to filtration. See also Example 5 for further details regarding UV-VIS, and recovery measured by U-HPLC.
The peptides were scored in relation to the outcome of the above mentioned tests: For each peptide in a given buffer and at a given concentration, a sum of test scores was calculated and the sum used to rank the peptides according to solubility: • 1. […] DLS peak 1 number 3 nm gave a score of 1, 3-10 nm gave a score of 2, 10-100 nm gave a score of 3, >100 nm gave a score of 4. • 5. 90LS at 400 nm: Intensity <450 gave a score of 1, <800 gave a score of 2, >800 gave a score of 3. • 6. UV-VIS change in absorbance at 320 nm within 24 hours: 0.01 gave a score of 1, ≤0.05 gave a score of 2, 0.0.2 gave a score of 3 and >0.2 gave a score of 4.
For the molecule AGYTPAAPAGAEPAGKATTE-OH [peptide 228], the “solubility in aqueous solutions and short-term stability” value is “sufficiently soluble”.

As for “Ac-STGGAYESYKFIPALEAAVK-NH2 [compound 262]”, the “solubility by ranking scheme based on a sum of scores” value (from here on “solubility by ranking scheme based”) is given as “good solubility”; the “solubility in aqueous solutions and short-term stability” value is “sufficiently soluble”.

As to “Ac-STGGAYESYKFIPALEAAVK-OH [compound 260]”, the “solubility by ranking scheme based” value is “good solubility”; the “solubility in aqueous solutions and short-term stability” value was “sufficiently soluble”.

As to SMGDDHFWAVRGGGGESFGI-OH [peptide 226], the “solubility in aqueous solutions and short-term stability” value is listed as “sufficiently soluble”.

Regarding STGGAYESYKFIPALEAAVK-NH2 [compound 261], the “solubility by ranking scheme based” value is “good solubility”; the “solubility in aqueous solutions and short-term stability” value is on record as “sufficiently soluble”.

For VRYTTEGGTKTEAEDVIPEG-OH [peptide 212], the “solubility in aqueous solutions and short-term stability” value is “sufficiently soluble”.

For WLDAKSTWYGKPTGAGPKDN-OH [peptide 201], the “solubility in aqueous solutions and short-term stability” value was “sufficiently soluble”.

Still in this data set, the particulars now being: pH 4.5.
AGYTPAAPAGAEPAGKATTE-OH [peptide 228]: the solubility result is recorded as “acceptable solubility”.

With SMGDDHFWAVRGGGGESFGI-OH [peptide 226], the solubility result is listed as “acceptable solubility”.

In the case of VRYTTEGGTKTEAEDVIPEG-OH [peptide 212], the solubility result is reported as “acceptable solubility”.

Regarding WLDAKSTWYGKPTGAGPKDN-OH [peptide 201], the solubility result is “acceptable solubility”.

A further data set concerns the target 25 HLA Class II alleles (purified class II MHC molecules). Briefly: competitive radiolabelled-peptide binding to purified HLA class II (25 alleles, binder if IC50 <300 nM); worldwide phenotypic coverage of the alleles found to bind.
Conditions: not given
B1 registered a Measured binding coverage 25 alleles of 99%.

In turn, B2 came in with a Measured binding coverage 25 alleles of 99%.

In the case of B3, the Measured binding coverage 25 alleles stood at 100%.

With B4, the Measured binding coverage 25 alleles was determined as 88%.

The molecule B5 came in with a Measured binding coverage 25 alleles of 98%.

Molecule B6 gave a Measured binding coverage 25 alleles of 99%.

For the molecule B7, the Measured binding coverage 25 alleles amounted to 98%.

In turn, B8 showed a Measured binding coverage 25 alleles of 47%.

B9 showed a Measured binding coverage 25 alleles of 92%.

In turn, B10 displayed a Measured binding coverage 25 alleles of 71%.

Molecule B11 gave a Measured binding coverage 25 alleles of 99%.

Regarding B12, the Measured binding coverage 25 alleles was determined as 94%.

Consider B13, for which the Measured binding coverage 25 alleles is 70%.

On to B14, for which the Measured binding coverage 25 alleles was determined as 85%.

With B15, the Measured binding coverage 25 alleles was determined as 69%.

For B16, the Measured binding coverage 25 alleles is 71%.

B17: the Measured binding coverage 25 alleles turned out to be 98%.

B18 gave a Measured binding coverage 25 alleles of 19%.

On to B19, for which the Measured binding coverage 25 alleles was 76%.

B20: the Measured binding coverage 25 alleles amounted to 78%.

On to B21, for which the Measured binding coverage 25 alleles amounted to 57%.

Take B22: the Measured binding coverage 25 alleles was 99%.

Molecule B23 displayed a Measured binding coverage 25 alleles of 62%.

B24 came in with a Measured binding coverage 25 alleles of 97%.

In turn, B25 displayed a Measured binding coverage 25 alleles of 99%.

In turn, B26 showed a Measured binding coverage 25 alleles of 93%.

On to B27, for which the Measured binding coverage 25 alleles is 99%.

The molecule B28 returned a Measured binding coverage 25 alleles of 99%.
